Laboratory results published in patent publication US12636342B2, “TARS derived from Akkermansia muciniphila or fragment thereof, and use thereof” (KOREA RESEARCH INSTITUTE OF BIOSCIENCE AND BIOTECHNOLOGY, priority 2020, dated 2026).

Experiments:
mouse adipocyte 3T3-L1 = test: Immunoblot of insulin signaling in 3T3-L1 with PMA or TNF-α induced inflammation; format: cell-based; details: 0.5 μM AmTARS
Description: Next, to determine whether the anti-inflammatory function of AmTARS affected the regulation of metabolic disease-associated intracellular signaling, immunoblot analysis was performed using the mouse adipocyte 3T3-L1.
Specifically, 3T3-L1 cells were cultured in DMEM containing 10% bovine calf serum (BCS) and antibiotics under conditions of 5% CO2 and 37° C. The cells were treated with 2 μM phorbol 12-myristate 13-acetate (PMA) or 20 ng/ml TNF-α to create an inflammatory environment in the cultured cells. The cells were treated with 100 nM insulin and 0.5 μM AmTARS for 24 h, and then changes in intracellular signaling were investigated.

[1] = test system: macrophage-depleted colitis mice; test: DSS-induced colitis in macrophage-depleted (Clodrosome) mice; format: in vivo, mouse
Description: To further validate the macrophage-dependent function of AmTARS in improving colitis, we investigated the anti-inflammatory effects of AmTARS in macrophage-depleted colitis mice.
A macrophage-deficient mice were prepared by administration of Clodrosome (administered at a concentration of 200 μL/animal to the abdominal cavity of mice a total of three times on Days 1, 5, and 8), and then the anti-inflammatory efficacy experiment was conducted by way of the same method as in Example 5. Normal mice injected with Encapsome were used as a control.

[2] = test system: B cell-deficient μMut mice; test: DSS-induced inflammatory bowel disease in B cell-deficient μMut mice; format: in vivo, mouse
Description: To determine whether the inflammatory bowel disease alleviation effect induced through the secretion of IL-10 cytokine by AmTARS corresponded to a B cell-mediated effect, DSS was administered to B cell-deficient μMut mice (μ heavy chain mutation mice, B cell depletion mice) by way of the same method as in Example 5 to induce inflammatory bowel disease, and AmTARS was administered.

[3] = Aminoacylation reaction (malachite green phosphate assay); format: biochemical; details: L-threonine, ATP, 30 min, free Pi at 620 nm
Description: TARS is an […] involved in protein synthesis, and the domain and site involved in its function are well known. The constructed deletion mutants were confirmed to have deletions of parts irrelevant to the function, but the aminoacylation reaction experiment was conducted to determine whether the deletion mutants performed the intrinsic functions thereof appropriately.
Specifically, a 2× reaction solution (100 mM Tris-HCl (pH 7.5), 20 mM MgCl2, 200 mM NaCl, 200 mM KCl, 2 mM DTT, 500 μM ATP, and 5 mM L-threonine) was prepared, and 25 μL of a reaction solution, 20 μL of distilled water, and 5 μL of protein were added to make a final 50 μL volume, followed by incubation for 30 min. Thereafter, a reaction was conducted using a malachite green phosphate assay kit (Bioassay Systems) for 30 min, and the free monophosphate group (Pi) was measured at a wavelength of 620 nm.

THP1 cells = test: Immunoblotting of AmTARS/TLR2-induced signaling molecules in THP1 cells; format: cell-based, human
Description: (A and B) Analysis of key molecules that inhibit the MAPK and PI3K/AKT signaling pathways. IL-10 produced by BMDMs pre-treated with inhibitors of ERK (PD98059, […]), p38 (SB203580, […]), MSK1/2 (SB747651A, 10 μM), CREB (666-15, 1 μM), PI3K (Wortmannin, 10 μM), and AKT1/2 (AKT1/2, 10 μM) for 1 h before treatment with either PBS or AmTARS for 24 h (n=6 per group) (A). Flow cytometry analysis of M2 macrophages in BMDMs pre-treated for 1 h with the indicated kinase inhibitors, before treatment with either PBS or AmTARS for 24 h (n=3 per group) (B). (C and D) Western blot analysis of MAPK signaling molecules in lysates of BMDMs (C) or THP1 cells (D) treated for different times with 0.5 μM AmTARS. (E) Western blot analysis of lysates of BMDMs pre-treated with α-IgG (Isotype, 1 μg ml-1) or α-TLR2 (1 μg ml-1) for 1 h before treatment with PBS, AmTARS (0.5 μM), or Pam3 (0.5 μM) for 30 min. (F and G) Western blot analysis of PI3K/AKT signaling molecules in lysates of BMDMs (F) or THP1 cells (G) treated with 0.5 μM AmTARS. (H) AmTARS activates both TLR2/1- and TLR2/6-mediated signaling. Activation of AKT, ERK, and CREB was measured by western blot analysis of lysates of THP1 cells pre-treated with α-IgG, α-TLR1, α-TLR2, or α-TLR6 (1 μg ml-1) for 1 h before treatment for 30 min with PBS or AmTARS (0.5 µM). Data shown in (A and B) are representative of three independent experiments, each with similar results (mean±SEM). P-values were calculated using an unpaired two-tailed Student's t-test. Data shown in (C-H) are representative and repeated at least three times.
Subsequently, we conducted immunoblotting assays to measure the time-dependent activation of AmTARS/TLR2-induced signaling molecules in both BMDMs and THP1 cells. AmTARS rapidly activated ERK, p38, and MSK1/2 within 15 min and, subsequently, phosphorylation of CREB at Ser133 (which is essential for IL-10 production) within 30 min in BMDMs (FIG. 31C) and THP1 cells (FIG. 31D). We then compared AmTARS-triggered TLR2 signaling with typical ligand-triggered signaling using Pam3CSK4 (the synthetic canonical TLR2/1 agonist, referred to hereafter as Pam3) in BMDMs stimulated for 30 min. […] By contrast, activation of NF-κB was greater in Pam3-treated BMDMs than in AmTARS-treated BMDMs (FIG. 31E).

phosphorylation of protein kinase B (AKT) (mouse adipocyte 3T3-L1; 3T3-L1, 100 nM insulin and 2 μM PMA, 24 h): again increased the phosphorylation | S6 kinase (S6K) (mouse adipocyte 3T3-L1; 3T3-L1, TNF-α, insulin): phosphorylated and activated | glycogen synthase kinase (GSK)-3β (mouse adipocyte 3T3-L1; 3T3-L1, TNF-α, insulin): phosphorylated and inhibited | insulin receptor substrate (IRS) (mouse adipocyte 3T3-L1; 3T3-L1, TNF-α, insulin): no significant change
B1: Akkermansia muciniphila-derived threonyl-tRNA synthetase (TARS) (protein)
chain: MSEHKERKTLEERQQMSDLERLRHSCAHVLATAICRLWPDAQLAGGPAVDNGFYYDVELDHRISTEDFERIEEEMKKVVKENQVFQKEVISRADAMKMAESGELGALGPRSEPSRFKIDLLNDIPEDEEISLYRNGDFTDLCAGPHVGRTGNCKAFKIMSVASAFYKGDKNRPMLQRIYGTCFPNRTQLDEHLERLEEARRRDHRKLGRELGLFCIDESVGQGLILWKPKGALIRRSLQDFITEELDKLGYSQVYTPNIGKLDLYRTSGHFPYYQESQYAPIPERDAMEKLSQEGASCAELFNGLATGTIEGYMLKPMNCPHHIKIYANDAHSYRDLPVRLAEFGTVYRWEQSGELGGMTRVRGFTQDDAHIFCTPDQLAGEIRQCLGIVKTIFGTLGMTDYRVRLSMRDPESDKYVGSPENWDKAEQALREAAEWLGADYSEEAGEAAFYGPKIDFIVRDAIGREWQLGTVQVDYNLPERFDLHYTGADNKPHRPVMVHRAPFGSMERFTGLLIEHFEGKFPTWLSPEQVRVLPISDKVTDVAAAHRTALAARGVRVTVDETPDKIGAKIRNARLDRVPYMLVLGQREAEDGTVSVRHRDKGDLGAMPFEQFADLVAREIAERHISPVI
modifications: Akkermansia muciniphila TARS
phosphorylation of AKT (mouse adipocyte 3T3-L1; 3T3-L1, insulin resistance induced by 20 ng/ml TNF-α, 100 nM insulin): increased the phosphorylation | colitis-induced body weight loss [1]: no effect | damage score [1]: no effect | disease activity score [1]: no effect | disruption of the epithelial lining [1]: no effect | numbers of IL-10-positive macrophages [1]: did not affect | numbers of inflammatory monocytes [1]: did not affect | shortening of the intestine [1]: no effect | increase in B cells [2]: could not be shown | aminoacylation reaction / enzymatic activity [3]: an aminoacylation reaction was shown | time to activation of AKT (THP1 cells; 0.5 μM AmTARS): ≤ 15 min | time to activation of ERK (THP1 cells; 0.5 μM AmTARS): ≤ 15 min | time to activation of MSK1/2 (THP1 cells; 0.5 μM AmTARS): ≤ 15 min | time to activation of PI3K (THP1 cells; 0.5 μM AmTARS): ≤ 15 min | time to activation of p38 (THP1 cells; 0.5 μM AmTARS): ≤ 15 min | time to inhibition of GSK3β activity (phosphorylation at Ser9) (THP1 cells; 0.5 μM AmTARS): ≤ 15 min | time to phosphorylation of CREB at Ser133 (THP1 cells; 0.5 μM AmTARS): ≤ 30 min | AmTARS-induced TLR2 signaling (AKT, ERK, CREB) after antibody pre-treatment (THP1 cells; α-TLR1, α-TLR2 or α-TLR6 1 μg ml-1 1 h, then AmTARS 0.5 μM 30 min): shut down by antibodies targeting TLR1, TLR6, and TLR2
